Experimental findings from publication PMC12230644, “A Bacteriophage‐Derived Primase‐Helicase Orchestrates Plant Organellar DNA Replication” (Physiologia Plantarum, 2025) are described below.

Several values for one entry are separate records, joined by “and”; a condition that tells them apart may be missing. Equal entries are not always repeated.

Data set [1] has as its target AtPolIB (Arabidopsis thaliana organellar DNA polymerase IB) (Arabidopsis thaliana). Description: MST; fluorescently labelled AtPolIB (His‐tag labelling kit) at constant concentration, AtHelicase or AtHelicase‐Δ10 titrated; PBS with 0.05% Tween‐20; NanoTemper Monolith NT.115p; no DNA.
Data set [2] deals with the molecule itself. Description: SEC; Superdex 200 gel filtration column calibrated with thyroglobulin, γ‐globulin, ovalbumin and myoglobin; in the absence of metal ions and nucleotides; size of the oligomer from the apparent mass.
Another data set concerns the target T1, AtTwinkle (Arabidopsis thaliana, UniProt B5X582 92-709).
T1 sequence: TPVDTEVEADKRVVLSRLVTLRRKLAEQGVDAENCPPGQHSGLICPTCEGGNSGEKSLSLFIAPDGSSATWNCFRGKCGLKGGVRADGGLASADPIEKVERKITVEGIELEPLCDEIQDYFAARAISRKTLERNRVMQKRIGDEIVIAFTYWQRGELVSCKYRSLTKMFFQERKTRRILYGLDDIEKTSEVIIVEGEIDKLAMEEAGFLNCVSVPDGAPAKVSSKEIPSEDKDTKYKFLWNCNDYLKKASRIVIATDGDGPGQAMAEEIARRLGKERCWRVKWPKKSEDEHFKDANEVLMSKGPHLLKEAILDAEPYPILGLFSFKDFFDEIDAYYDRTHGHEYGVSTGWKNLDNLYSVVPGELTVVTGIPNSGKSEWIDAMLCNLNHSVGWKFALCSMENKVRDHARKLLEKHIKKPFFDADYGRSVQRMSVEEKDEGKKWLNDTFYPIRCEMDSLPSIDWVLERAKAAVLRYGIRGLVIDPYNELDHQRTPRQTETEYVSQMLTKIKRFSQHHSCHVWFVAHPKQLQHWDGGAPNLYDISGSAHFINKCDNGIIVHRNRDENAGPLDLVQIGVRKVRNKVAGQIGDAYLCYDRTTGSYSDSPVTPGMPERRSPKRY
Description: EMSA; no polymerase; EMSA on 8% polyacrylamide gel; binding buffer, pH and temperature not given in the material (helicase assays: 20 mM Bis-Tris-Propane pH 7.5, 10 mM MgCl2, 10 mM). Particulars: protein: recombinant; tags: His tag (pET19b; mutagenesis section names pCRI1b-AtTwinkle); chain copies: 6; label: OligoJ 5'-Cy2; fork, strands 1:2 (18 bp) and 2:3 (27 bp); 4 nt gap on template; 22 nt 5' ssDNA tail on strand 3.

A further data set has as its target T2, AtPolIA (Arabidopsis thaliana, UniProt F4I6M1 92-1050).
T2 sequence: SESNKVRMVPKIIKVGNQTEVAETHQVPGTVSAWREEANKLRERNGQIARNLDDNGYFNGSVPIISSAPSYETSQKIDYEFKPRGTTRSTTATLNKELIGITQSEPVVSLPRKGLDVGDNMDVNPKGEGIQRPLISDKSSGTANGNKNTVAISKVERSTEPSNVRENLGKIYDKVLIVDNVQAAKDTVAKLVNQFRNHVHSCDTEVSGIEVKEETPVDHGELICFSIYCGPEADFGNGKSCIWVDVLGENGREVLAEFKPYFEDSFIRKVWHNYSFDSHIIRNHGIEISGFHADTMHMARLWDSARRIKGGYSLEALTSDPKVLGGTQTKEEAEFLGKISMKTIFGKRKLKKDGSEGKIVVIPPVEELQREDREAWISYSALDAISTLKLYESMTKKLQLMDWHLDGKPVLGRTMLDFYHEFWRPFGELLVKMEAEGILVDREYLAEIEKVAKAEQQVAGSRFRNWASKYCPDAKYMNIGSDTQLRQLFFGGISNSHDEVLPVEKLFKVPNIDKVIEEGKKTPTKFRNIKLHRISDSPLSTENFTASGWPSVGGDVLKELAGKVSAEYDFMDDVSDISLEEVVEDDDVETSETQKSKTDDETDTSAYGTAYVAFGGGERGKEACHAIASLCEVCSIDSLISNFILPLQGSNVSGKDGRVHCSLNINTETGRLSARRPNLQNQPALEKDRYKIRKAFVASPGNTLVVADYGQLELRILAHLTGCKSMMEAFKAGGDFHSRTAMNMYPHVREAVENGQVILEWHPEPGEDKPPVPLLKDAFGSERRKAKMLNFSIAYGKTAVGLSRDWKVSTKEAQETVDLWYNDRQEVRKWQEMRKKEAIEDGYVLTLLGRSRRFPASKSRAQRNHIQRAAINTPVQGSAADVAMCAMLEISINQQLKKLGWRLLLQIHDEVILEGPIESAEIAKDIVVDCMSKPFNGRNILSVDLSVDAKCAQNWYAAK
Description: EMSA; no AtTwinkle; EMSA on 8% polyacrylamide gel; binding buffer, pH and temperature not given in the material (helicase assays: 20 mM Bis-Tris-Propane pH 7.5, 10 mM MgCl2, 10 mM). The note with it: protein: recombinant; tags: Cy5-labeled; label: OligoJ 5'-Cy2; fork, strands 1:2 (18 bp) and 2:3 (27 bp); 4 nt gap on template; 22 nt 5' ssDNA tail on strand 3.

The next data set deals with AtTwinkle;AtPolIA (Arabidopsis thaliana;Arabidopsis …, UniProt B5X582;F4I6M1 92-709;92-1050, |). Briefly: EMSA; constant AtPolIA, high AtTwinkle; Cy2/Cy5 (orange) band at gel top, AtPolIA-DNA band disappears; EMSA on 8% polyacrylamide gel; binding buffer, pH and temperature not given in the material (helicase assays: 20 mM Bis-Tris-Propane pH 7.5, 10 mM MgCl2, 10 mM). Particulars: protein: recombinant;recombinant; tags: His tag (pET19b; mutagenesis section names pCRI1b-AtTwinkle);Cy5-labeled; label: OligoJ 5'-Cy2; fork, strands 1:2 (18 bp) and 2:3 (27 bp); 4 nt gap on template; 22 nt 5' ssDNA tail on strand 3.

B1: AtHelicaseΔ10 (AtHelicase lacking the last 10 amino acids) (domain or fragment)
chain: ILDAEPYPILGLFSFKDFFDEIDAYYDRTHGHEYGVSTGWKNLDNLYSVVPGELTVVTGIPNSGKSEWIDAMLCNLNHSVGWKFALCSMENKVRDHARKLLEKHIKKPFFDADYGRSVQRMSVEEKDEGKKWLNDTFYPIRCEMDSLPSIDWVLERAKAAVLRYGIRGLVIDPYNELDHQRTPRQTETEYVSQMLTKIKRFSQHHSCHVWFVAHPKQLQHWDGGAPNLYDISGSAHFINKCDNGIIVHRNRDENAGPLDLVQIGVRKVRNKVAGQIGDAYLCYDRTTGSYSDSPVTPG
In data set [1], B1 came in with a Kd of 3640 nM.

B2: AtTwinkle (bacteriophage‐related primase‐helicase from Arabidopsis thaliana), processed form (enzyme, UniProt B5X582 92-709, looked up)
chain: TPVDTEVEADKRVVLSRLVTLRRKLAEQGVDAENCPPGQHSGLICPTCEGGNSGEKSLSLFIAPDGSSATWNCFRGKCGLKGGVRADGGLASADPIEKVERKITVEGIELEPLCDEIQDYFAARAISRKTLERNRVMQKRIGDEIVIAFTYWQRGELVSCKYRSLTKMFFQERKTRRILYGLDDIEKTSEVIIVEGEIDKLAMEEAGFLNCVSVPDGAPAKVSSKEIPSEDKDTKYKFLWNCNDYLKKASRIVIATDGDGPGQAMAEEIARRLGKERCWRVKWPKKSEDEHFKDANEVLMSKGPHLLKEAILDAEPYPILGLFSFKDFFDEIDAYYDRTHGHEYGVSTGWKNLDNLYSVVPGELTVVTGIPNSGKSEWIDAMLCNLNHSVGWKFALCSMENKVRDHARKLLEKHIKKPFFDADYGRSVQRMSVEEKDEGKKWLNDTFYPIRCEMDSLPSIDWVLERAKAAVLRYGIRGLVIDPYNELDHQRTPRQTETEYVSQMLTKIKRFSQHHSCHVWFVAHPKQLQHWDGGAPNLYDISGSAHFINKCDNGIIVHRNRDENAGPLDLVQIGVRKVRNKVAGQIGDAYLCYDRTTGSYSDSPVTPGMPERRSPKRY
notes: codon-optimised gene; The results call this construct 'full-length'; the methods give residues 92-709; The oligomer size is told differently in text (nonamer and a larger complex) and legend (hexamer), so copies is left empty; The methods name pET19b for cloning and pCRI1b-AtTwinkle for mutagenesis; also called plant Twinkle; full‐length AtTwinkle; source: E. coli BL21(DE3) with pKJ7 chaperones, …
On to B2, for which the “stoichiometry N” value in data set [2] is 9 and 6.

B3: replication fork OligoJ+OligoK+OligoL (mixed)
DNA 1: AGCTATGACCATGATTAC
DNA 2: AGCTACCATGCCTGCACGAATTAAGCAATTCGTAATCATGGTCATAGCT
DNA 3: CAACTGCTCCGATGCCTTACCGTGCTTAATTCGTGCAGGCATGGTAGCT
In the case of B3, the binding result with AtTwinkle, with AtPolIA and with AtTwinkle;AtPolIA was “binds” throughout.

B4: AtHelicase (helicase domain of AtTwinkle) (domain or fragment, Arabidopsis thaliana, UniProt B5X582 402-709, looked up)
chain: ILDAEPYPILGLFSFKDFFDEIDAYYDRTHGHEYGVSTGWKNLDNLYSVVPGELTVVTGIPNSGKSEWIDAMLCNLNHSVGWKFALCSMENKVRDHARKLLEKHIKKPFFDADYGRSVQRMSVEEKDEGKKWLNDTFYPIRCEMDSLPSIDWVLERAKAAVLRYGIRGLVIDPYNELDHQRTPRQTETEYVSQMLTKIKRFSQHHSCHVWFVAHPKQLQHWDGGAPNLYDISGSAHFINKCDNGIIVHRNRDENAGPLDLVQIGVRKVRNKVAGQIGDAYLCYDRTTGSYSDSPVTPGMPERRSPKRY
notes: AtTwinkle, Arabidopsis thaliana, AT1G30680, helicase domain, residues 402-709; Modified pET28-SUMO vector; also called helicase module of AtTwinkle; wild‐type AtHelicase; source: E. coli BL21(DE3) with pKJ7 chaperones, purified (Ni‐NTA, heparin, Superdex 200)
Take B4: in data set [2], the “stoichiometry N” value stood at 6. Besides, in data set [1], the Kd is 210 nM.
